From paper doi:10.1101/2022.10.06.511240 (bioRxiv, 2022)

Molecular target: T1, NRT1.1-His (Arabidopsis thaliana, UniProt Q05085 1-590)
T1 sequence (looked up): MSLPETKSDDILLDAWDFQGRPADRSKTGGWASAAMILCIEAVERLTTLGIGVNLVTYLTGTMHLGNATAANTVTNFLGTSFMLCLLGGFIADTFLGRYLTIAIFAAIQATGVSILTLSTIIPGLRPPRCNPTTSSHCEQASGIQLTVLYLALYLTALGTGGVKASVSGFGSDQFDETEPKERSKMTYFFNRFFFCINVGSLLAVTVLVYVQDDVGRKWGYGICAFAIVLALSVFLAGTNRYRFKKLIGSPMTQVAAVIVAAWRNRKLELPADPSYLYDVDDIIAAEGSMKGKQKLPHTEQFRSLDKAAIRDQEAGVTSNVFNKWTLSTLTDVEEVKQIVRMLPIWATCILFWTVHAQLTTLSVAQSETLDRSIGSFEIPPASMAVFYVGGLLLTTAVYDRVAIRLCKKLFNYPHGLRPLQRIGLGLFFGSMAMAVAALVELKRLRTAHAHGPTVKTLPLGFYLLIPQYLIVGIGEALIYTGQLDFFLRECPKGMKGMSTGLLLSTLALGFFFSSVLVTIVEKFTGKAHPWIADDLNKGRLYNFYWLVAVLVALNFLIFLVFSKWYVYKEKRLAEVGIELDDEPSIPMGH
Assay: pull-down

- binding result: binds
B1: CPK6-GST (enzyme, Arabidopsis thaliana, UniProt Q38872 1-544, looked up)
chain: MGNSCRGSFKDKIYEGNHSRPEENSKSTTTTVSSVHSPTTDQDFSKQNTNPALVIPVKEPIMRRNVDNQSYYVLGHKTPNIRDLYTLSRKLGQGQFGTTYLCTDIATGVDYACKSISKRKLISKEDVEDVRREIQIMHHLAGHKNIVTIKGAYEDPLYVHIVMELCAGGELFDRIIHRGHYSERKAAELTKIIVGVVEACHSLGVMHRDLKPENFLLVNKDDDFSLKAIDFGLSVFFKPGQIFKDVVGSPYYVAPEVLLKHYGPEADVWTAGVILYILLSGVPPFWAETQQGIFDAVLKGYIDFDTDPWPVISDSAKDLIRKMLCSSPSERLTAHEVLRHPWICENGVAPDRALDPAVLSRLKQFSAMNKLKKMALKVIAESLSEEEIAGLRAMFEAMDTDNSGAITFDELKAGLRRYGSTLKDTEIRDLMEAADVDNSGTIDYSEFIAATIHLNKLEREEHLVSAFQYFDKDGSGYITIDELQQSCIEHGMTDVFLEDIIKEVDQDNDGRIDYEEFVAMMQKGNAGVGRRTMKNSLNISMRDV
